This is an account of results in the Immune Epitope Database (IEDB).

Experiment [1] has as its target HLA-A*02:01. The experiment is described as follows: IEDB peptide-MHC binding, purified MHC/competitive/fluorescence; filed as Kd, often an IC50 or EC50 that approximates it; ≥ and ≤ were set here for values at or beyond the usual limits of such assays.
Another experiment addresses HLA-A*23:01. Briefly: IEDB peptide-MHC binding, purified MHC/competitive/radioactivity; filed as Kd, often an IC50 or EC50 that approximates it; ≥ and ≤ were set here for values at or beyond the usual limits of such assays.
In another experiment the target is HLA-A*24:02. The description is as above.
A further experiment has as its target HLA-A*32:01. The experiment is described as above.
Experiment [2] has as its target HLA-A*01:01. The experiment is described as follows: IEDB peptide-MHC binding, purified MHC/direct/fluorescence; filed as Kd, often an IC50 or EC50 that approximates it; ≥ and ≤ were set here for values at or beyond the usual limits of such assays. Particulars: source organism: Mycobacterium tuberculosis.
In experiment [3] the target is HLA-A*02:01. Briefly: IEDB peptide-MHC binding, purified MHC/competitive/fluorescence; ≥ and ≤ were set here for values at or beyond the usual limits of such assays.
For experiment [4], the target named is HLA-A*11:01. Briefly: IEDB peptide-MHC binding, purified MHC/competitive/radioactivity; filed as Kd, often an IC50 or EC50 that approximates it; ≥ and ≤ were set here for values at or beyond the usual limits of such assays. Particulars: source organism: Dengue virus 4 Philippines/H241/1956.
For another experiment, the target named is HLA-B*40:01. Briefly: IEDB peptide-MHC binding, purified MHC/direct/fluorescence; filed as Kd, often an IC50 or EC50 that approximates it; ≥ and ≤ were set here for values at or beyond the usual limits of such assays.
A further experiment concerns the target HLA-A*30:01. Briefly: IEDB peptide-MHC binding, purified MHC/competitive/radioactivity; filed as Kd, often an IC50 or EC50 that approximates it; ≥ and ≤ were set here for values at or beyond the usual limits of such assays.
For a further experiment, the target named is HLA-A*26:01. Described as above.
Experiment [5] has as its target HLA-A*01:01. Described as above. The conditions noted are these: source organism: Dengue virus 1 Brazil/97-11/1997.
Experiment [6] concerns the target HLA-A*02:01. Briefly: IEDB peptide-MHC binding, purified MHC/direct/fluorescence; filed as Kd, often an IC50 or EC50 that approximates it; ≥ and ≤ were set here for values at or beyond the usual limits of such assays. Particulars: source organism: Homo sapiens.
Experiment [7] deals with HLA-A*11:01. The experiment is described as above.
The target in the next experiment is HLA-A*03:01. The experiment is described as above. The conditions noted are these: source organism: Homo sapiens.
In experiment [8] the target is HLA-A*31:01. The description is as above. The conditions noted are these: source organism: Homo sapiens.
The target in the next experiment is HLA-B*07:02. The experiment is described as above.
In another experiment the target is HLA-A*69:01. The experiment is described as above.
The target in another experiment is HLA-B*44:02. Briefly: IEDB peptide-MHC binding, purified MHC/competitive/radioactivity; filed as Kd, often an IC50 or EC50 that approximates it; ≥ and ≤ were set here for values at or beyond the usual limits of such assays. Particulars: source organism: Dengue virus 1 Brazil/97-11/1997.
The target of the next experiment is HLA-A*30:02. Described as above.
The target of a further experiment is HLA-B*15:01. Briefly: IEDB peptide-MHC binding, purified MHC/direct/fluorescence; filed as Kd, often an IC50 or EC50 that approximates it; ≥ and ≤ were set here for values at or beyond the usual limits of such assays. Particulars: source organism: SARS-CoV1.
The target in a further experiment is HLA-A*68:01. The experiment is described as follows: IEDB peptide-MHC binding, purified MHC/competitive/radioactivity; filed as Kd, often an IC50 or EC50 that approximates it; ≥ and ≤ were set here for values at or beyond the usual limits of such assays. Particulars: source organism: SARS coronavirus Tor2.
Experiment [9] has as its target HLA-A*31:01. The description is as above. Particulars: source organism: SARS coronavirus Tor2.
For a further experiment, the target named is HLA-A*33:01. Described as above. Particulars: source organism: SARS coronavirus Tor2.
[10] abbreviates: source organism: Dengue virus 4 Philippines/H241/1956.
[11] abbreviates: source organism: Dengue virus 3 Martinique/1243/1999.
Where [12] appears, read: source organism: Dengue virus 2 Peru/IQT2913/1996.
The mark [13] stands for this setting: source organism: Sudan ebolavirus.
[14] abbreviates: source organism: Dengue virus 2 Jamaica/1409/1983.
[15] abbreviates: source organism: Vaccinia virus WR.
Where [16] appears, read: source organism: Dengue virus 3 Singapore/8120/1995.
The mark [17] stands for this setting: source organism: Orthohantavirus hantanense.
[18] abbreviates: source organism: Dengue virus 1 Singapore/S275/1990.
The mark [19] stands for this setting: source organism: Salmonella enterica subsp. enterica serovar Typhi.

Where only a bound is given, the exact number is not on record here.

By Kd is commonly meant the equilibrium constant for the complex coming apart. Consider RMPEAAPPV, for which the Kd in the experiment with HLA-A*02:01 [1] (source organism: Tupaia belangeri) is 0.5 nM. Regarding RFLEFEALGF, the Kd with HLA-A*23:01 (setting [10]) came out at 1.44 nM. As to AWRTIMAVLF, the Kd is 22.1 nM with HLA-A*24:02 (setting [10]) and 51.5 nM with HLA-A*23:01 (setting [10]).

With GPITTLWEGS, in the experiment with HLA-A*32:01 (setting [11]), the dissociation constant (Kd) was 2870 nM. As for ISGLFPVSI, the Kd in the experiment with HLA-A*32:01 (setting [12]) is 1260 nM. As for RTRPRWIPA, in the experiment with HLA-A*01:01 [2], the Kd is ≥ 20000 nM. Turning to TWAFCEVLTL, the results for the Kd with HLA-A*24:02 (setting [10]) and with HLA-A*23:01 (setting [10]) were 2230 nM and 237 nM, respectively.

For LMYNLLTII, the Kd in the experiment with HLA-A*32:01 (source organism: Vaccinia virus Copenhagen) came out at 30.2 nM. The term IC50 denotes the concentration that inhibits the measured activity by half. High values mean lower potency, low ones higher potency. NAAGIAWIP registered an IC50 with HLA-A*02:01 [3] (setting [13]) of 64500 nM.

For WHLGKLEMDF, the Kd with HLA-A*23:01 (setting [14]) amounted to 1880 nM.

On to GRLIWTLDA, for which, in the experiment with HLA-A*02:01 [3] (setting [13]), the IC50 is ≥ 593000 nM. FKAALSSLA: the IC50 in the experiment with HLA-A*02:01 [3] (source organism: Zaire ebolavirus) was ≥ 109000 nM. SALTLHWFRK: the Kd stood at 18.4 nM with HLA-A*11:01 [4] and 1940 nM with HLA-A*32:01 (setting [10]). Consider LEDSHNGKL, for which, in the experiment with HLA-B*40:01 (source organism: Influenza A virus (A/Denver/1957(H1N1))), the Kd was 73 nM. With RKDIQQWEPS, the Kd with HLA-A*32:01 (setting [14]) turned out to be 3870 nM. DTITYKCPLL: the Kd with HLA-A*30:01 (setting [14]) was 1140 nM; with HLA-A*26:01 (setting [14]), 2100 nM. Consider VTDKEKPVNI, for which the dissociation constant (Kd) with HLA-A*01:01 [5] came to 15500 nM. Turning to ETNYYIHPI, the Kd with HLA-A*32:01 (setting [15]) was 368 nM. In the case of RLANNKVTI, in the experiment with HLA-A*32:01 (setting [15]), the Kd turned out to be 1.54 nM. TLLMNELGV: the Kd in the experiment with HLA-A*02:01 [1] (source organism: Influenza A virus (A/nt/60/1968(H3N2))) amounted to 0.7 nM.

As to GNLSPETLV, the IC50 with HLA-A*02:01 [3] (source organism: Vaccinia virus) was ≥ 106000 nM. Consider EALKGLPIRY, for which the Kd in the experiment with HLA-A*26:01 (setting [11]) was determined as 10100 nM. Consider YLGSWATGK, for which the Kd with HLA-A*02:01 [6] is 15800 nM; with HLA-A*11:01 [7] (source organism: Homo sapiens), 1440 nM; in the experiment with HLA-A*03:01 it was 257 nM; in the experiment with HLA-A*31:01 [8], 1960 nM. IDFLLRRWG came in with an IC50 in the experiment with HLA-A*02:01 [3] (setting [13]) of 26200 nM. In turn, APRALLLLL registered an equilibrium dissociation constant (Kd) with HLA-B*07:02 (source organism: Homo sapiens) of 2100 nM. As to KHMIAGVLF, in the experiment with HLA-A*24:02 (setting [16]), the Kd came out at 683 nM. For RSFEIINVL, the Kd with HLA-A*32:01 (setting [15]) came to 2.9 nM.

Take NAHEGQLVI: the Kd was 3400 nM with HLA-A*69:01 (setting [17]) and ≥ 25300 nM in the experiment with HLA-B*07:02 (setting [17]). Turning to LWATLLSLTF, the dissociation constant (Kd) turned out to be 193 nM in the experiment with HLA-A*24:02 (setting [18]) and 25.3 nM in the experiment with HLA-A*23:01 (setting [18]).

Consider DTIETLMLLA, for which, in the experiment with HLA-A*26:01 (source organism: Dengue virus 1 Brazil/97-11/1997), the Kd is 228 nM.

With SEILPFTVL, the Kd in the experiment with HLA-B*40:01 (source organism: Mycobacterium tuberculosis variant bovis) turned out to be 14.7 nM. AAGLPAIFV: the figures for the Kd in the experiment with HLA-A*11:01 [7] (setting [19]) and with HLA-A*69:01 (setting [19]) were 3860 nM and 1070 nM, respectively. Regarding SWKLEKASF, the Kd with HLA-A*24:02 (setting [16]) was found to be 153 nM. Consider SEMAEALKG, for which, in the experiment with HLA-B*44:02, the Kd worked out at 14.5 nM. Consider GYSQIGAGVY, for which the Kd with HLA-A*30:02 (setting [14]) is 127 nM. For the sequence AGEKALKLSW, in the experiment with HLA-B*44:02, the Kd is 576 nM. For KMQRMLLEK, the equilibrium dissociation constant (Kd) was ≥ 40300 nM with HLA-B*15:01, 1380 nM in the experiment with HLA-A*68:01, 19 nM with HLA-A*31:01 [9] and 13700 nM with HLA-A*33:01. In the case of NWASVKKDLI, in the experiment with HLA-A*23:01 (setting [11]), the Kd came to 287 nM. As for DKKGKVVGLY, the Kd in the experiment with HLA-A*30:02 (setting [12]) was found to be 2.56 nM. Consider TTRHRKPTY, for which the Kd turned out to be 1180 nM with HLA-A*30:01 (setting [10]) and 658 nM with HLA-A*30:02 (setting [10]).
